In the Human Domainome abundance scans (Beltran et al. 2025):
± gives the uncertainty stated by the source.

B1: Membrane-associated guanylate kinase, WW and PDZ domain-containing protein 1, residues 352 to 401; numbered along this chain, Q96QZ7 (parent)
chain: TEELDSELELPAGWEKIEDPVYGIYYVDHINRKTQYENPVLEAKRKKQLE
B2: Mineralocorticoid receptor, residues 600 to 675; numbered along this chain, P08235 (parent)
chain: SKICLVCGDEASGCHYGVVTCGSCKVFFKRAVEGQHNYLCAGRNDCIIDKIRRKNCPACRLQKCLQAGMNLGARKS

Variants of: B1
Experiment: abundance fitness (aPCA) (normalised: wild type 0, dead -1); higher = more abundant; growth selection in yeast, the domain comes from the species named
Conditions: Homo sapiens

Row | Variant | abundance fitness
1 | E50H | -0.699 ± 0.28
2 | E50D | 0.006 ± 0.1
3 | E50Q | -0.438 ± 0.18
4 | E50I | -0.273 ± 0.33
5 | E50C | 0.327 ± 0.43
6 | E50S | -0.321 ± 0.11
7 | E50K | -0.264 ± 0.22
8 | E50V | -0.332 ± 0.11
9 | E50A | 0.032 ± 0.064
10 | E50R | -0.841 ± 0.23
11 | E50W | 0.058 ± 0.38
12 | E50L | -0.223 ± 0.18
13 | E50T | -0.174 ± 0.046
14 | K47T | -0.077 ± 0.044
15 | K47W | -0.414 ± 0.072
16 | K47R | -0.163 ± 0.043
17 | K47Q | 0.013 ± 0.059
18 | K47S | 0.016 ± 0.059
19 | K47Y | -0.207 ± 0.06
20 | L49T | -0.002 ± 0.05
21 | L49I | -0.232 ± 0.14
22 | L49M | 0.154 ± 0.065
23 | L49A | -0.003 ± 0.046
24 | L49N | -0.222 ± 0.24
25 | L49V | -0.138 ± 0.063
26 | L49W | -0.239 ± 0.043

Row | Variant | abundance fitness
27 | L49H | -0.073 ± 0.11
28 | L49P | -0.049 ± 0.064
29 | L49Y | -0.048 ± 0.089
30 | L49K | -0.002 ± 0.083
31 | L49F | -0.328 ± 0.12
32 | L49E | 0.132 ± 0.066
33 | Q48T | -0.17 ± 0.051
34 | Q48P | -0.528 ± 0.077
35 | Q48F | -0.339 ± 0.13
36 | Q48A | -0.045 ± 0.044
37 | Q48H | -0.1 ± 0.089
38 | Q48E | 0.262 ± 0.077
39 | Q48G | -0.221 ± 0.047
40 | Q48L | -0.279 ± 0.055
41 | Q48S | -0.035 ± 0.049
42 | Q48C | -0.134 ± 0.061
43 | Q48K | -0.035 ± 0.055
44 | Q48V | -0.115 ± 0.048
45 | Q48R | -0.227 ± 0.052
46 | Q48Y | -0.152 ± 0.052
47 | Q48W | -0.26 ± 0.075
48 | Q48I | 0.188 ± 0.092
49 | Q48N | 0.107 ± 0.047
50 | Q48D | 0.017 ± 0.073
51 | Q48M | 0.001 ± 0.042

Variants of: B2
Experiment: as above
Conditions: Homo sapiens

Row | Variant | abundance fitness
52 | K2R | -0.083 ± 0.041
53 | K2F | -0.267 ± 0.18
54 | K2H | -0.109 ± 0.078
55 | K2I | -0.041 ± 0.065
56 | K2M | -0.075 ± 0.055
57 | K2W | -0.246 ± 0.063
58 | K2S | -0.161 ± 0.051
59 | K2L | -0.099 ± 0.049
60 | K2G | -0.163 ± 0.042
61 | K2E | -0.072 ± 0.057
62 | K2V | -0.142 ± 0.043
63 | K2N | 0.002 ± 0.061
64 | K2Y | -0.085 ± 0.098
65 | K2D | -0.062 ± 0.063
66 | K2A | -0.066 ± 0.048
67 | K2T | -0.049 ± 0.06
68 | K2Q | 0.118 ± 0.067
69 | C4A | -1.37 ± 0.35
70 | C4P | -0.986 ± 0.27
71 | C4T | -0.837 ± 0.12
72 | C4M | -0.96 ± 0.19
73 | C4N | -1.04 ± 0.37
74 | C4H | -0.77 ± 0.21
75 | C4S | -0.851 ± 0.14

Row | Variant | abundance fitness
76 | C4I | -0.808 ± 0.2
77 | C4D | -0.549 ± 0.15
78 | C4Y | -0.99 ± 0.42
79 | C4Q | -0.812 ± 0.19
80 | C4V | -0.989 ± 0.24
81 | C4K | -0.87 ± 0.23
82 | C4W | -1.06 ± 0.27
83 | C4F | -0.753 ± 0.26
84 | C4E | -0.727 ± 0.11
85 | C4L | -0.768 ± 0.1
86 | C4G | -0.842 ± 0.1
87 | S12I | 0.043 ± 0.11
88 | S12P | -0.008 ± 0.067
89 | S12V | -0.106 ± 0.069
90 | S12C | -0.142 ± 0.11
91 | S12N | 0.205 ± 0.29
92 | S12Q | -0.019 ± 0.095
93 | S12H | -0.117 ± 0.14
94 | S12K | -0.124 ± 0.13
95 | S12F | -0.173 ± 0.15
96 | S12M | 0.071 ± 0.074
97 | S12W | -0.191 ± 0.12
98 | S12G | -0.181 ± 0.074
99 | S12L | 0.068 ± 0.062

Row | Variant | abundance fitness
100 | S12E | 0.103 ± 0.11
101 | S12A | -0.132 ± 0.073
102 | S12D | -0.238 ± 0.17
103 | S12Y | 0.096 ± 0.11
104 | S12R | 0.004 ± 0.072
105 | D9Q | -0.092 ± 0.072
106 | D9A | 0.048 ± 0.049
107 | D9F | -0.202 ± 0.1
108 | D9V | -0.001 ± 0.042
109 | D9Y | -0.161 ± 0.092
110 | D9H | -0.04 ± 0.13
111 | D9T | -0.082 ± 0.058
112 | D9E | -0.096 ± 0.056
113 | D9K | -0.231 ± 0.078
114 | D9L | -0.309 ± 0.05
115 | D9G | -0.053 ± 0.042
116 | D9R | -0.183 ± 0.042
117 | D9C | -0.137 ± 0.084
118 | D9S | -0.102 ± 0.053
119 | D9I | -0.168 ± 0.15
120 | D9N | -0.144 ± 0.1
121 | D9W | -0.214 ± 0.05
122 | Y16L | -0.104 ± 0.039
123 | Y16P | -0.125 ± 0.069

Row | Variant | abundance fitness
124 | Y16F | -0.053 ± 0.093
125 | Y16V | 0.013 ± 0.043
126 | Y16H | -0.022 ± 0.082
127 | Y16G | -0.061 ± 0.048
128 | Y16W | 0.024 ± 0.053
129 | Y16Q | -0.068 ± 0.057
130 | Y16T | -0.027 ± 0.049
131 | Y16I | -0.213 ± 0.099
132 | Y16A | -0.039 ± 0.046
133 | Y16K | -0.081 ± 0.057
134 | Y16D | -0.025 ± 0.099
135 | Y16R | -0.075 ± 0.039
136 | Y16S | -0.097 ± 0.049
137 | Y16C | -0.054 ± 0.083
138 | Y16N | -0.147 ± 0.11
139 | C7Y | -0.805 ± 0.26
140 | C7S | -0.96 ± 0.27
141 | C7A | -0.933 ± 0.2
142 | C7W | -0.765 ± 0.2
143 | C7T | -0.999 ± 0.42
144 | C7R | -0.886 ± 0.18
145 | C7L | -1.15 ± 0.49
146 | C7V | -0.998 ± 0.26
147 | C7H | -0.802 ± 0.46

Row | Variant | abundance fitness
148 | E10M | -0.177 ± 0.07
149 | E10T | -0.032 ± 0.056
150 | E10W | -0.012 ± 0.045
151 | E10K | 0.016 ± 0.057
152 | E10Q | 0.071 ± 0.054
153 | E10L | -0.028 ± 0.043
154 | E10C | -0.221 ± 0.083
155 | E10H | 0.078 ± 0.13
156 | E10I | -0.188 ± 0.093
157 | E10R | -0.1 ± 0.044
158 | E10D | -0.018 ± 0.082
159 | E10Y | -0.105 ± 0.071
160 | E10V | -0.04 ± 0.044
161 | E10G | 0.043 ± 0.04
162 | E10P | -0.108 ± 0.071
163 | E10N | -0.04 ± 0.12
164 | E10A | -0.063 ± 0.045
165 | E10S | -0.03 ± 0.047
166 | I3F | -0.04 ± 0.12
167 | I3C | -0.172 ± 0.073
